Experimental data from US20200324001A1 (NATIONAL UNIVERSITY CORPORATION OKAYAMA UNIVERSITY, published 2020).

Tests used:
[1] = molecular target: T1, human recombinant mesothelin (r-MSLN) (human, UniProt Q13421 296-598, limits assumed); assay: BLI (BLItz, AR2G biosensor), unlabeled scFv against r-MSLN
T1 construct: also called recombinant MSLN; antigen r-MSLN

[2] = molecular target: T1, human recombinant mesothelin (r-MSLN); assay: BLI (BLItz, AR2G biosensor), scFv after DFO modification against r-MSLN
[3] = molecular target: T1, human recombinant mesothelin (r-MSLN); assay: BLI (BLItz, AR2G biosensor), scFv after 89Zr labeling against r-MSLN
Experimental: DFO modification to each His-tag scFv was performed by incubation in bicarbonate buffer at a pH of 9.0 at 37° C. for 1 hour so that the ratio of dissolved chelating agent deferoxamine (p-SCN-Bn-DFO) to His-tag scFv was 3:1. ⁸⁹Zr was produced with a cyclotron (HM-12 cyclotron, Sumitomo Heavy Industries Ltd., Tokyo, Japan), and ⁸⁹Zr-oxalate was obtained. ⁸⁹Zr-oxalate, Na₂CO₃ (2M), and HEPES (0.5 M) were mixed so that the ratio of ⁸⁹Zr-oxalate to Na₂CO₃ (2M) to HEPES (0.5 M) was 2:1:10 and adjusted to a pH of 7.0, and the mixture was mixed with each DFO-modified His-tag scFv clone in which the solvent was replaced with gentisic acid physiological saline (5 mg/mL), followed by incubation at 37° C. for 30 minutes, thereby obtaining ⁸⁹Zr-DFO-scFvs. Unbound ⁸⁹Zr was removed by ultrafiltration using an Amicon Ultra 10K centrifugal filter. The radiochemical purity was determined by thin-layer chromatography-autoradiography (TLC-ARG) and HPLC (LC-20, Shimadzu Co., Kyoto, Japan). […] The in vitro stability of the radiolabeled scFvs after incubation in 50% human plasma/PBS at 37° C. for 6 hours was also analyzed. […] Immediately after mixing and after 6-hour incubation, a portion of the mixture of the radiolabeled scFv and the plasma was measured at 230 nm by HPLC, and the radioactivity was measured with a GABI star (Raytest, Straubenhardt, Germany). […]

[4] = molecular target: T2, mesothelin (MSLN) expressed on human cancer cell lines (human, UniProt Q13421 296-598); assay: flow cytometry on Hela cells; grade of MFI ratio to control (+ = 4.9-1.5)
T2 construct: whole, on cells; also called MSLN expressed in cancer cells
T2 sequence (Q13421 other isoform, or with tags, fused parts or gaps limits assumed): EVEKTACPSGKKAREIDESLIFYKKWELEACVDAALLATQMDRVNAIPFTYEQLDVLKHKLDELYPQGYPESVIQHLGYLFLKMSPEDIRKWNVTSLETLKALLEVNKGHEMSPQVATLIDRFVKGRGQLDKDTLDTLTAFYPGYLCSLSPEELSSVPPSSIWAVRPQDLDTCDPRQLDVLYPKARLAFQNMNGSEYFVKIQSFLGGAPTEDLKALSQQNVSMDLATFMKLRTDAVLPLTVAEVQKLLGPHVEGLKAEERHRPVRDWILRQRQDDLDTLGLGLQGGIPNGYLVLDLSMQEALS
Experimental: (§1) A total of 28 cell lines were used for FCM analysis. The “MSLN exp ref” column indicates positive MSLN expression shown in previous studies. The “MSLN exp FCM” column indicates the ratio of the mean fluorescence intensity […] of the control; a ratio of 5 or more was indicated as “++,” a ratio of 4.9-1.5 was indicated as “+,” and a ratio of 1.4 or less is indicated as “−.”
(§2) The human cancer cell lines (Table 1) were treated with Cell Dissociation Buffer, enzyme-free, PBS (Gibco/Life Technologies, CA, USA) and harvested as single-cell suspensions. 1×10⁶ cells were washed once with cold PBS containing 2% FBS and 1 mM EDTA, and a full-length anti-human MSLN antibody, each anti-human MSLN cp3-scFv clone, or each His-tag scFv clone was used as a primary antibody. For the full-length anti-human MSLN antibody, an anti-KLH antibody (IgG2b isotype control) was used as a negative control, and an Alexa Fluor 488-labeled goat anti-mouse IgG antibody was used as a secondary antibody. […] The mean value of the fluorescence intensity (excluding the dead cell population) was obtained using BD FACSDiva software and calculated using Microsoft Excel.

[5] = molecular target: T2, mesothelin (MSLN) expressed on human …; assay: flow cytometry on 22Rv1 cells; grade of MFI ratio to control (+ = 4.9-1.5)
Experimental: as §1, §2

[6] = molecular target: T2, mesothelin (MSLN) expressed on human …; assay: flow cytometry on MKN45 cells; grade of MFI ratio to control (+ = 4.9-1.5)
Experimental: as §1, §2

[7] = molecular target: T2, mesothelin (MSLN) expressed on human …; assay: flow cytometry on MKN74 cells; grade of MFI ratio to control (+ = 4.9-1.5)
Experimental: as §1, §2

[8] = molecular target: T2, mesothelin (MSLN) expressed on human …; assay: flow cytometry on BxPC-3 cells; grade of MFI ratio to control (+ = 4.9-1.5)
Experimental: as §1, §2

[9] = molecular target: T2, mesothelin (MSLN) expressed on human …; assay: flow cytometry on CFPAC-1 cells; grade of MFI ratio to control (+ = 4.9-1.5)
Experimental: as §1, §2

[10] = molecular target: T2, mesothelin (MSLN) expressed on human …; assay: flow cytometry on HEC-1-A cells; grade of MFI ratio to control (+ = 4.9-1.5)
Experimental: as §1, §2

[11] = molecular target: T2, mesothelin (MSLN) expressed on human …; assay: flow cytometry on SK-OV-3 cells; grade of MFI ratio to control (+ = 4.9-1.5)
Experimental: as §1, §2

[12] = molecular target: T2, mesothelin (MSLN) expressed on human …; assay: flow cytometry on SiHa cells; grade of MFI ratio to control (++ = 5 or more)
Experimental: as §1, §2

[13] = molecular target: T2, mesothelin (MSLN) expressed on human …; assay: flow cytometry on NCI-H596 cells; grade of MFI ratio to control (+ = 4.9-1.5)
Experimental: as §1, §2

[14] = molecular target: T2, mesothelin (MSLN) expressed on human …; assay: flow cytometry on NCI-N87 cells; grade of MFI ratio to control (++ = 5 or more)
Experimental: as §1, §2

[15] = molecular target: T2, mesothelin (MSLN) expressed on human …; assay: flow cytometry on OVCAR-3 cells; grade of MFI ratio to control (++ = 5 or more)
Experimental: as §1, §2

[16] = molecular target: T2, mesothelin (MSLN) expressed on human …; assay: flow cytometry on NCI-H226 cells; grade of MFI ratio to control (++ = 5 or more)
Experimental: as §1, §2

T1 sequence (Q13421 other isoform, or with tags, fused parts or gaps limits assumed): as above

B1: anti-human MSLN His-tag scFv clone H2a064 (scFv)
scFv: SYELTQPPSVSVSPGQTARITCSGDALPKHYASWYQQKPGQAPVLLIYKDTERPSGIPERFSGSSSGTTVTLTISGVQAEDEADYYCQSADSSVTVVFGGGTKLTVLGGGGSGGGGSGGGGSGGGGSQVQLVQSGGGLVQPGRSLRLSCAASGFTFDDYAMHWVRQAPGKGLEWVSGISWNSGSIGYADSVKGRFTISRDNAKNSLYLQMNSLRAEDTALYYCAKDIGSSGWYGAFDIWGQGTTVTVSSGG
notes: Unlabeled His-tag scFv expressed in CHO cells; also called His-tag scFv H2a064; His-Tag-scFv H2a064
Kd [1]: 59.6 nM

B2: DFO-modified His-tag scFv H2a064 (scFv)
scFv: SYELTQPPSVSVSPGQTARITCSGDALPKHYASWYQQKPGQAPVLLIYKDTERPSGIPERFSGSSSGTTVTLTISGVQAEDEADYYCQSADSSVTVVFGGGTKLTVLGGGGSGGGGSGGGGSGGGGSQVQLVQSGGGLVQPGRSLRLSCAASGFTFDDYAMHWVRQAPGKGLEWVSGISWNSGSIGYADSVKGRFTISRDNAKNSLYLQMNSLRAEDTALYYCAKDIGSSGWYGAFDIWGQGTTVTVSSGG
modifications: deferoxamine (p-SCN-Bn-DFO) conjugated, chelator to scFv ratio 3:1 in the reaction; sites not stated
notes: Same polypeptide as H2a064 His-tag scFv, carrying the DFO chelator; also called H2a064 after DFO modification; DFO-His-tag-scFv H2a064
Kd [2]: 114 nM

B3: 89Zr-DFO-scFv H2a064 (scFv)
scFv: SYELTQPPSVSVSPGQTARITCSGDALPKHYASWYQQKPGQAPVLLIYKDTERPSGIPERFSGSSSGTTVTLTISGVQAEDEADYYCQSADSSVTVVFGGGTKLTVLGGGGSGGGGSGGGGSGGGGSQVQLVQSGGGLVQPGRSLRLSCAASGFTFDDYAMHWVRQAPGKGLEWVSGISWNSGSIGYADSVKGRFTISRDNAKNSLYLQMNSLRAEDTALYYCAKDIGSSGWYGAFDIWGQGTTVTVSSGG
modifications: deferoxamine (p-SCN-Bn-DFO) conjugated and loaded with 89Zr; sites not stated
notes: Same polypeptide as H2a064 His-tag scFv, DFO-modified and 89Zr-labeled; also called H2a064 after 89Zr labeling; 89Zr-labeled DFO-His-tag-scFv H2a064
Kd [3]: 78.2 nM

B4: anti-human MSLN His-tag scFv clone H1a050 (scFv)
scFv: SYELTQPPSVSVSPGQTARITCSGNALPKQYAYWYQQKPGQAPVLMIYKDSERPSGIPERFSGSSSGTTVTLTISGVQAEDEADYYCQSADSSHTYKVFGGGTKLTVLGGGGSGGGGSGGGGSGGGGSEVQLVQSGGGLVQPDRSLRLSCAASGFTFDDYAMHWVRQAPGKGLEWVSGISWNSGSIGYADSVKGRFTISRDNAKNSLYLQMNSLRAEDTALYYCAKDLGSYYGSGSGMDVWGQGTTVTVSSGG
notes: Unlabeled His-tag scFv expressed in CHO cells; also called His-tag scFv H1a050; His-Tag-scFv H1a050
Kd [1]: 4.68 nM | ratio of MFI of scFv clone H1a050 to MFI of control (flow cytometry) [4]: 1.5 to 4.9 ratio | ratio of MFI of scFv clone H1a050 to MFI of control (flow cytometry) [5]: 1.5 to 4.9 ratio | ratio of MFI of scFv clone H1a050 to MFI of control (flow cytometry) [6]: 1.5 to 4.9 ratio | ratio of MFI of scFv clone H1a050 to MFI of control (flow cytometry) [7]: 1.5 to 4.9 ratio | ratio of MFI of scFv clone H1a050 to MFI of control (flow cytometry) [8]: 1.5 to 4.9 ratio | ratio of MFI of scFv clone H1a050 to MFI of control (flow cytometry) [9]: 1.5 to 4.9 ratio | ratio of MFI of scFv clone H1a050 to MFI of control (flow cytometry) [10]: 1.5 to 4.9 ratio | ratio of MFI of scFv clone H1a050 to MFI of control (flow cytometry) [11]: 1.5 to 4.9 ratio | ratio of MFI of scFv clone H1a050 to MFI of control (flow cytometry) [12]: ≥ 5 ratio | ratio of MFI of scFv clone H1a050 to MFI of control (flow cytometry) [13]: 1.5 to 4.9 ratio | ratio of MFI of scFv clone H1a050 to MFI of control (flow cytometry) [14]: ≥ 5 ratio | ratio of MFI of scFv clone H1a050 to MFI of control (flow cytometry) [15]: ≥ 5 ratio | ratio of MFI of scFv clone H1a050 to MFI of control (flow cytometry) [16]: ≥ 5 ratio

B5: 89Zr-DFO-scFv H1a050 (scFv)
scFv: SYELTQPPSVSVSPGQTARITCSGNALPKQYAYWYQQKPGQAPVLMIYKDSERPSGIPERFSGSSSGTTVTLTISGVQAEDEADYYCQSADSSHTYKVFGGGTKLTVLGGGGSGGGGSGGGGSGGGGSEVQLVQSGGGLVQPDRSLRLSCAASGFTFDDYAMHWVRQAPGKGLEWVSGISWNSGSIGYADSVKGRFTISRDNAKNSLYLQMNSLRAEDTALYYCAKDLGSYYGSGSGMDVWGQGTTVTVSSGG
modifications: deferoxamine (p-SCN-Bn-DFO) conjugated and loaded with 89Zr; sites not stated
notes: Same polypeptide as H1a050 His-tag scFv, DFO-modified and 89Zr-labeled; also called H1a050 after 89Zr labeling; 89Zr-labeled DFO-His-tag-scFv H1a050
Kd [3]: 46.2 nM

B6: DFO-modified His-tag scFv H1a050 (scFv)
scFv: SYELTQPPSVSVSPGQTARITCSGNALPKQYAYWYQQKPGQAPVLMIYKDSERPSGIPERFSGSSSGTTVTLTISGVQAEDEADYYCQSADSSHTYKVFGGGTKLTVLGGGGSGGGGSGGGGSGGGGSEVQLVQSGGGLVQPDRSLRLSCAASGFTFDDYAMHWVRQAPGKGLEWVSGISWNSGSIGYADSVKGRFTISRDNAKNSLYLQMNSLRAEDTALYYCAKDLGSYYGSGSGMDVWGQGTTVTVSSGG
modifications: deferoxamine (p-SCN-Bn-DFO) conjugated, chelator to scFv ratio 3:1 in the reaction; sites not stated
notes: Same polypeptide as H1a050 His-tag scFv, carrying the DFO chelator; also called H1a050 after DFO modification; DFO-His-tag-scFv H1a050
Kd [2]: 3.38 nM
